In paper PMC10786891, “Massively parallel profiling of RNA-targeting CRISPR-Cas13d”:
Numbering of substitutions follows the chain as printed. Names may count otherwise.

T1: EsCas13d, nuclease-dead (Eubacterium siraeum, UniProt B0MS50, R295A;H300A;R849A;H854A)
T1 sequence: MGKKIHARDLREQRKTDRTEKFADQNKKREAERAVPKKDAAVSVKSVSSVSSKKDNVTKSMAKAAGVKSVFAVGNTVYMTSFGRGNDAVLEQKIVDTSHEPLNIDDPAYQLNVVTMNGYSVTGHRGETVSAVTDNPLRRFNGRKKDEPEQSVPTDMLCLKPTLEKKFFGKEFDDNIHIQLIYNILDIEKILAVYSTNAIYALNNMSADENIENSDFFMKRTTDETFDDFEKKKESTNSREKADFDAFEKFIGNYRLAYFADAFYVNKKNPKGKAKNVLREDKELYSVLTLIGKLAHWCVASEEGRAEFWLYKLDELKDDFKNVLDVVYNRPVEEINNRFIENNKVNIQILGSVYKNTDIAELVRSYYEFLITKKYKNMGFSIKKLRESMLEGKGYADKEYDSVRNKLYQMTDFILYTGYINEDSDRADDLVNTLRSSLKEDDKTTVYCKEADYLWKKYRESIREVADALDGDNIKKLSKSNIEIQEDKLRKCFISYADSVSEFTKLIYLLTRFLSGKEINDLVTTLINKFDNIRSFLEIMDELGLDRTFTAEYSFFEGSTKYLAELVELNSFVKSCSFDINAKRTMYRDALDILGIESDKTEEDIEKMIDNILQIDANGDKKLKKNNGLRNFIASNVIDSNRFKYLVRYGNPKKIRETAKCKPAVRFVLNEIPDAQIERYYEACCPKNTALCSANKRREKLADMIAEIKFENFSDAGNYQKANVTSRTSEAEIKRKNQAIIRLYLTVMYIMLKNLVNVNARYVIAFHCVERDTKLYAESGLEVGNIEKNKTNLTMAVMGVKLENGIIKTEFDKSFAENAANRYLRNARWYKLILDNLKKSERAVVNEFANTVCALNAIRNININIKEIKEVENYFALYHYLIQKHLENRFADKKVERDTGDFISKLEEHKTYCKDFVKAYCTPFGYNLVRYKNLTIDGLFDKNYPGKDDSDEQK

B1: target 1 MT 5'PFS GAA 3'PFS UCA (mixed)
RNA 1: CACCCGUGCAAAAAUGCAGGGGUCUAAAACUGAGCGGAUAACCUCUCUAUGG
RNA 2: GGGAAUGGAUCCACAUCUACGAAUUCGAACCAUAGAGAGGUUAUCCGCUCAUCAAGAUCGGAAGAGCACACGU
B2: target 1 MT 5'PFS GUG 3'PFS AUC (mixed)
RNA 1: B1 RNA 1
RNA 2: B1 RNA 2 with A28U, A29G, U52A, C53U, A54C
B3: target 1 MT 5'PFS AAC 3'PFS ACC (mixed)
RNA 1: B1 RNA 1
RNA 2: B1 RNA 2 with G27A, A29C, U52A, A54C
B4: target 1 MT 5'PFS GGG 3'PFS CGG (mixed)
RNA 1: B1 RNA 1
RNA 2: B1 RNA 2 with A28G, A29G, U52C, C53G, A54G
B5: target 1 MT 5'PFS GUG 3'PFS AUU (mixed)
RNA 1: B1 RNA 1
RNA 2: B1 RNA 2 with A28U, A29G, U52A, C53U, A54U
B6: target 1 MT 5'PFS UAU 3'PFS UAA (mixed)
RNA 1: B1 RNA 1
RNA 2: B1 RNA 2 with G27U, A29U, C53A
B7: target 1 MT 5'PFS GCG 3'PFS UCG (mixed)
RNA 1: B1 RNA 1
RNA 2: B1 RNA 2 with A28C, A29G, A54G
B8: target 1 MT 5'PFS GUG 3'PFS AUG (mixed)
RNA 1: B1 RNA 1
RNA 2: B1 RNA 2 with A28U, A29G, U52A, C53U, A54G
B9: target 1 MT 5'PFS GCG 3'PFS UCA (mixed)
RNA 1: B1 RNA 1
RNA 2: B1 RNA 2 with A28C, A29G
B10: target 1 MT 5'PFS GAC 3'PFS AAA (mixed)
RNA 1: B1 RNA 1
RNA 2: B1 RNA 2 with A29C, U52A, C53A
B11: target 1 MT 5'PFS CUA 3'PFS CAG (mixed)
RNA 1: B1 RNA 1
RNA 2: B1 RNA 2 with G27C, A28U, U52C, C53A, A54G
B12: target 1 insA 3' of 22,insU 3' of 4 (mixed)
RNA 1: B1 RNA 1
RNA 2: GGGAAUGGAUCCACAUCUACGAAUUCGUACACAUAGAGAGGUUAUCCGCUUCACCGAGAUCGGAAGAGCACACGU
B13: target 1 MT 5'PFS GAA 3'PFS UCC (mixed)
RNA 1: B1 RNA 1
RNA 2: B1 RNA 2 with A54C
B14: target 1 MT 5'PFS GUU 3'PFS UAU (mixed)
RNA 1: B1 RNA 1
RNA 2: B1 RNA 2 with A28U, A29U, C53A, A54U
B15: target 1 MT 5'PFS CCA 3'PFS CAU (mixed)
RNA 1: B1 RNA 1
RNA 2: B1 RNA 2 with G27C, A28C, U52C, C53A, A54U
B16: target 1 MT 5'PFS AAA 3'PFS UUA (mixed)
RNA 1: B1 RNA 1
RNA 2: B1 RNA 2 with G27A, C53U
B17: target 1 MT 5'PFS GCA 3'PFS UCC (mixed)
RNA 1: B1 RNA 1
RNA 2: B1 RNA 2 with A28C, A54C
B18: target 1 MT 5'PFS UAG 3'PFS CCC (mixed)
RNA 1: B1 RNA 1
RNA 2: B1 RNA 2 with G27U, A29G, U52C, A54C
B19: target 1 MT 5'PFS CUC 3'PFS ACG (mixed)
RNA 1: B1 RNA 1
RNA 2: B1 RNA 2 with G27C, A28U, A29C, U52A, A54G
B20: target 1 MT 5'PFS UAG 3'PFS CCG (mixed)
RNA 1: B1 RNA 1
RNA 2: B1 RNA 2 with G27U, A29G, U52C, A54G
B21: target 1 MT 5'PFS UCA 3'PFS CCU (mixed)
RNA 1: B1 RNA 1
RNA 2: B1 RNA 2 with G27U, A28C, U52C, A54U
B22: target 1 MT 5'PFS GUU 3'PFS CAC (mixed)
RNA 1: B1 RNA 1
RNA 2: B1 RNA 2 with A28U, A29U, U52C, C53A, A54C
B23: target 1 MT 5'PFS UGU 3'PFS CUA (mixed)
RNA 1: B1 RNA 1
RNA 2: B1 RNA 2 with G27U, A28G, A29U, U52C, C53U
B24: target 1 A1U,G12U (mixed)
RNA 1: B1 RNA 1
RNA 2: B1 RNA 2 with A28U, G40U, A51U, U52C, A54G
B25: target 1 del8,del22 (mixed)
RNA 1: B1 RNA 1
RNA 2: GGGAAUGGAUCCACAUCUACGAAUUCGUACAUAGAGAGGUUACCGCUCACCGAGAUCGGAAGAGCACACGU
B26: target 1 MT 5'PFS GUG 3'PFS AUA (mixed)
RNA 1: B1 RNA 1
RNA 2: B1 RNA 2 with A28U, A29G, U52A, C53U
B27: target 1 insC 3' of 19,insG 3' of 9 (mixed)
RNA 1: B1 RNA 1
RNA 2: B12 RNA 2 with A31C, C32A, A33U, U34C, U45G, C46U, G48C, C49G, U50C
B28: target 1 MT 5'PFS AAA 3'PFS UUG (mixed)
RNA 1: B1 RNA 1
RNA 2: B1 RNA 2 with G27A, C53U, A54G
B29: target 1 MT 5'PFS AAC 3'PFS ACA (mixed)
RNA 1: B1 RNA 1
RNA 2: B1 RNA 2 with G27A, A29C, U52A
B30: target 1 MT 5'PFS GAA 3'PFS UCG (mixed)
RNA 1: B1 RNA 1
RNA 2: B1 RNA 2 with A54G
B31: target 1 MT 5'PFS GUU 3'PFS ACA (mixed)
RNA 1: B1 RNA 1
RNA 2: B1 RNA 2 with A28U, A29U, U52A
B32: target 1 MT 5'PFS GCG 3'PFS UCC (mixed)
RNA 1: B1 RNA 1
RNA 2: B1 RNA 2 with A28C, A29G, A54C
B33: target 1 MT 5'PFS GGG 3'PFS CGC (mixed)
RNA 1: B1 RNA 1
RNA 2: B1 RNA 2 with A28G, A29G, U52C, C53G, A54C
B34: target 1 MT 5'PFS CCA 3'PFS CAC (mixed)
RNA 1: B1 RNA 1
RNA 2: B1 RNA 2 with G27C, A28C, U52C, C53A, A54C
B35: target 1 MT 5'PFS UGU 3'PFS CUU (mixed)
RNA 1: B1 RNA 1
RNA 2: B1 RNA 2 with G27U, A28G, A29U, U52C, C53U, A54U
B36: target 1 MT 5'PFS GUU 3'PFS ACG (mixed)
RNA 1: B1 RNA 1
RNA 2: B1 RNA 2 with A28U, A29U, U52A, A54G
B37: target 1 MT 5'PFS ACC 3'PFS CAG (mixed)
RNA 1: B1 RNA 1
RNA 2: B1 RNA 2 with G27A, A28C, A29C, U52C, C53A, A54G
B38: target 1 MT 5'PFS AAC 3'PFS ACU (mixed)
RNA 1: B1 RNA 1
RNA 2: B1 RNA 2 with G27A, A29C, U52A, A54U
B39: target 1 MT 5'PFS GUU 3'PFS CAA (mixed)
RNA 1: B1 RNA 1
RNA 2: B1 RNA 2 with A28U, A29U, U52C, C53A

Target: T1, EsCas13d, nuclease-dead
Experiment: crRNA (strand 1, pre-loaded); Mg2+; 40 mM Tris-HCl pH 7.5, 150 mM NaCl, 6 mM MgCl2, 1 mM DTT, 0.1% Tween-20, 0.2 mg/ml BSA; 25 C; 10 min per concentration, then washed
Settings: tags: His6-TwinStrep-SUMO cleaved; N-terminal SNAP kept (SNAP-Surface 488); label: 3' end held by stalled T7 RNA polymerase

B1 and B2 are within error of each other in Kd: 29 ± 8 nM for the first, 19.9 ± 2.4 nM for the second.

B3 and B4 are within error of each other in Kd: about 43 nM for the first, 37.5 ± 8 nM for the second.

Going from B5 to B6, the Kd rises from 15.8 ± 1.4 nM to 34 ± 11 nM (2.2-fold).

B7 and B8 are within error of each other in Kd: 12.8 ± 2.6 nM for the first, 16.2 ± 1 nM for the second.

Going from B9 to B10, the Kd rises from 17.7 ± 4.45 nM to about 51 nM (2.9-fold). The first binds more tightly here.

B11 and B12 are within 1.5-fold of each other in Kd: about 9.5 nM for the first, 11.3 ± 0.7 nM for the second.

Going from B13 to B14, the Kd falls from 27 ± 7 nM to 16.9 ± 2.4 nM (1.6-fold). The second binds more tightly here.

B15 and B16 are within error of each other in Kd: 6.55 ± 2.8 nM for the first, 10.1 ± 1.45 nM for the second.

Compared with B17, B18 is 4.1-fold higher in Kd: 13.7 ± 5.95 nM for the first, about 56 nM for the second. The first binds more tightly here.

First: B19
Second: B20
The Kd of the first is 3.3-fold higher: 72 ± 33 nM for the first, 22 ± 5.15 nM for the second.

B21 and B22 are within error of each other in Kd: 27.5 ± 9.5 nM for the first, 22.5 ± 9 nM for the second.

First: B23
Second: B24
The Kd of the first is 3.5-fold higher: 49 ± 19 nM for the first, 14.1 ± 1.8 nM for the second. The second binds more tightly here.

Going from B25 to B26, the Kd falls from 32.9 ± 1.7 nM to 18.2 ± 1.25 nM (1.8-fold).

Compared with B27, B28 is 3.8-fold lower in Kd: 44 ± 5 nM for the first, 11.7 ± 1.55 nM for the second.

B29 and B30 are within error of each other in Kd: 80 ± 34.5 nM for the first, 39.5 ± 18 nM for the second.

B31 and B32 are within error of each other in Kd: 26.5 ± 9.5 nM for the first, 19 ± 4 nM for the second.

First: B33
Second: B34
The Kd of the first is 6.7-fold higher: 64 ± 30 nM for the first, about 9.5 nM for the second.

B35 and B36 are within error of each other in Kd: 28.9 ± 7.65 nM for the first, 33 ± 6.5 nM for the second.

Going from B37 to B38, the Kd falls from about 36 nM to 21 ± 7 nM (1.7-fold).

B39 showed a Kd of 56.5 ± 22.5 nM.
